In data set [1] the target is T1, alpha-thrombin (mouse) (Mus musculus, UniProt P19221;P19221 312-360;361-618). The data set can be described thus: SPR; SPR (Biacore X100, CM5, single-cycle kinetics, 1:1 fit): PBS pH 7.4, 0.05% (v/v) Tween 20; aptamers annealed in PBS (95 to 25 C); 1 M NaCl regeneration; assay temperature not stated. The conditions noted are these: protein: commercial, copies: 1;1. A general note: Surface plasmon resonance follows binding to a sensor surface in real time, without labels.

The target in data set [2] is T2, alpha-thrombin (human) (Homo sapiens, UniProt P00734;P00734 315-363;364-622). The data set can be described thus: SPR; SPR (Biacore X100, CM5, single-cycle kinetics, 1:1 fit): PBS pH 7.4, 0.05% (v/v) Tween 20; aptamers annealed in PBS (95 to 25 C); 1 M NaCl regeneration; assay t.
Data set [3] deals with T2, alpha-thrombin (human). The data set can be described thus: SPR; 1:1 approximation; SPR (Biacore X100, CM5, single-cycle kinetics, 1:1 fit): PBS pH 7.4, 0.05% (v/v) Tween 20; aptamers annealed in PBS (95 to 25 C); 1 M NaCl regeneration; assay t.
The target of data set [4] is T1, alpha-thrombin (mouse). The data set can be described thus: SPR; 1:1 approximation; SPR (Biacore X100, CM5, single-cycle kinetics, 1:1 fit): PBS pH 7.4, 0.05% (v/v) Tween 20; aptamers annealed in PBS (95 to 25 C); 1 M NaCl regeneration; assay temperature not stated. To be noted: protein: commercial; copies: 1;1; pseudo-circular, 17 bp duplex linker.

Kd data for four molecules are collected here from PMC10445101, “A neutralizable dimeric anti-thrombin aptamer with potent anticoagulant activity in mice”.

As a reminder, the Kd is the equilibrium constant for the complex coming apart.

B1: M08s-1 (M08s) (structured_DNA)
DNA: AGGTCAGATGATGGGGATGGGGGGTTGGAGGAATGGATGACCT
For B1, the figures for the Kd in data set [1] (predicted G4 with stem) and in data set [2] were 495 nM and 47.2 nM, respectively.

B2: TBA29 (HD22) (structured_DNA)
DNA: AGTCCGTGGTAGGGCAGGTTGGGGTGACT
With B2, the values for the Kd in data set [1] and in data set [2] were 22 nM and 36.9 nM, respectively.

B3: Pse08-29 (M08s-ds17-TBA29) (structured_DNA)
DNA: GTCACTAGAGGTCAGATGATGGGGATGGGGGGTTGGAGGAATGGATGACCTCTAGTGACTGATTTACGAGTCCGTGGTAGGGCAGGTTGGGGTGACTCGTAAATCA
For B3, the Kd in data set [3] worked out at 2.6 nM; in data set [4], 6.3 nM.

B4: Pse08-08 (M08s-ds17-M08s) (structured_DNA)
DNA: GTCACTAGAGGTCAGATGATGGGGATGGGGGGTTGGAGGAATGGATGACCTCTAGTGACTGATTTACGAGGTCAGATGATGGGGATGGGGGGTTGGAGGAATGGATGACCTCGTAAATCA
Take B4: the Kd is 4.2 nM in data set [1] (pseudo-circular, 17 bp duplex linker) and 0.4 nM in data set [2].
